Source: article doi:10.1101/2020.04.15.043356 (bioRxiv, 2020)

B1: GST-Sec23 (natural protein, S. cerevisiae)
chain: MDFETNEDINGVRFTWNVFPSTRSDANSNVVPVGCLYTPLKEYDELNVAPYNPVVCSGPHCKSILNPYCVIDPRNSSWSCPICNSRNHLPPQYTNLSQENMPLELQSTTIEYITNKPVTVPPIFFFVVDLTSETENLDSLKESIITSLSLLPPNALIGLITYGNVVQLHDLSSETIDRCNVFRGDREYQLEALTEMLTGQKPTGPGGAASHLPNAMNKVTPFSLNRFFLPLEQVEFKLNQLLENLSPDQWSVPAGHRPLRATGSALNIASLLLQGCYKNIPARIILFASGPGTVAPGLIVNSELKDPLRSHHDIDSDHAQHYKKACKFYNQIAQRVAANGHTVDIFAGCYDQIGMSEMKQLTDSTGGVLLLTDAFSTAIFKQSYLRLFAKDEEGYLKMAFNGNMAVKTSKDLKVQGLIGHASAVKKTDANNISESEIGIGATSTWKMASLSPYHSYAIFFEIANTAANSNPMMSAPGSADRPHLAYTQFITTYQHSSGTNRIRVTTVANQLLPFGTPAIAASFDQEAAAVLMARIAVHKAETDDGADVIRWLDRTLIKLCQKYADYNKDDPQSFRLAPNFSLYPQFTYYLRRSQFLSVFNNSPDETAFYRHIFTREDTTNSLIMIQPTLTSFSMEDDPQPVLLDSISVKPNTILLLDTFFFILIYHGEQIAQWRKAGYQDDPQYADFKALLEEPKLEAAELLVDRFPLPRFIDTEAGGSQARFLLSKLNPSDNYQDMARGGSTIVLTDDVSLQNFMTHLQQVAVSGQA

Experiments:
[1] = molecular target: Sec13/Sec31 outer coat complex (wild type, His tag removed) (S. cerevisiae, UniProt Q04491 1-297; P38968 1-1273); assay: pull-down
Chain of Sec13/Sec31 outer coat complex (wild type, His tag removed) (Q04491 whole entry, chain 1 of 2): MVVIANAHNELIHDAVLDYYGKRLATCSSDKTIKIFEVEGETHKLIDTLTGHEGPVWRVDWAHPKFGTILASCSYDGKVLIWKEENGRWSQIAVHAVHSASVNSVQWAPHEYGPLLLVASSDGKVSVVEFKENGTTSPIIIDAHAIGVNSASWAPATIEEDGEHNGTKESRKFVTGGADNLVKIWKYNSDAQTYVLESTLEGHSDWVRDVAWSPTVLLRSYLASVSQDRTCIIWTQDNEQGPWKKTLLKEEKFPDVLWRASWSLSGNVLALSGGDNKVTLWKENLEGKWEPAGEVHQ
Chain of Sec13/Sec31 outer coat complex (wild type, His tag removed) (P38968 whole entry, chain 2 of 2): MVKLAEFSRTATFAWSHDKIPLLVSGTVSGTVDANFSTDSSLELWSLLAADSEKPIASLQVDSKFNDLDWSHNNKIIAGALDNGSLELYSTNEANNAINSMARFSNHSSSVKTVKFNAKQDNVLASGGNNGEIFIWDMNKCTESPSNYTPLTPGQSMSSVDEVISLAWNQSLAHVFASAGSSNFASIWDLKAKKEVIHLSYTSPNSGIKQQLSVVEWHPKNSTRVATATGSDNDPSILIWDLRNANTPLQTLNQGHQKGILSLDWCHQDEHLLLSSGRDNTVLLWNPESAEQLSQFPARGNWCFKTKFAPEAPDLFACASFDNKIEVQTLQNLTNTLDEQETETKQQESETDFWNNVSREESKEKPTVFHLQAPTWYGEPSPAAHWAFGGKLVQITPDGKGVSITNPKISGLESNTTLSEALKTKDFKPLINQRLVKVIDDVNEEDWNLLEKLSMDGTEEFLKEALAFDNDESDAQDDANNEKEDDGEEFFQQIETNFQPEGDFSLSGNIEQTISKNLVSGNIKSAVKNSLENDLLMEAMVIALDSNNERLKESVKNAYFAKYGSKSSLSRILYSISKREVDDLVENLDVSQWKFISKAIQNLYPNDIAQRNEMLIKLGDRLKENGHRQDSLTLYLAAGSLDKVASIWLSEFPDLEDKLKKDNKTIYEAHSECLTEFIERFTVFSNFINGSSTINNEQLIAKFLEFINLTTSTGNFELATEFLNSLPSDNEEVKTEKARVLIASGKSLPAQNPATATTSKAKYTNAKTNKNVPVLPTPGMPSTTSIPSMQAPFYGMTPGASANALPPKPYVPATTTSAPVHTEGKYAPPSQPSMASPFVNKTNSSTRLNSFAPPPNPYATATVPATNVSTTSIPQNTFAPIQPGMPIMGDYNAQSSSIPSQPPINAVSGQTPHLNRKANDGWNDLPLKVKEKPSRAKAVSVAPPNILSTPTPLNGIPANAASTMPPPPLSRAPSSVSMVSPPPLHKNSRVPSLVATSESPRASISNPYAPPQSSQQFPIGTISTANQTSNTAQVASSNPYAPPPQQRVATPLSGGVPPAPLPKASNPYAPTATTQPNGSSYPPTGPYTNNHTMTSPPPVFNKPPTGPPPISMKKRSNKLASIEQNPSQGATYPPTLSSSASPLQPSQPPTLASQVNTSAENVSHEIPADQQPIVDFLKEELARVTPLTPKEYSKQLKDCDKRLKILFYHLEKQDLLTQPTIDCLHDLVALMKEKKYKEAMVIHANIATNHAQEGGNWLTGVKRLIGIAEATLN

GST-Sec23 = molecular target: B1; assay: pull-down

Binder	binding result [1]	binding result (GST-Sec23)
B1	binds	
6xHis-Grh1 (natural protein, S. cerevisiae, UniProt Q04410 1-372, looked up) MFRIAKNLVRTFEQSVQDTLALSQDSSNLDAFFQSIPPNLLSAQLESPVDAVSEGVKHTNVNETLSGLRIVWVDEMQFQLQSFFDYIVGFNDDPVPVVSNQHGFSYPDYRRITSIFNEHCGRTLKVNIWSAKGGTFRDEYISIISKESDDLDDVSLNHDERRPSSGEAHQFQALGFKVQWTPLIASTFTYHILNVNIPDGPAQSAGLIPDEDYIIGCQDGLLATGGETLLQDIVRSRANYDLVLYVYNKVSDCVRPITVHIGPDGRLGCNVGYGFLHRIPTVKHCPQQAQQQGQDDNPVPVPVPVESETAFVPSAFTAPPVPTKKKSKNKKGTQPLAMDDYFNEGRDKSSTAAKSAESDILAPPPQKQSSSD		binds
